Test results as given in article PMC3876041, “Screening of Peptide Ligands for Pyrroloquinoline Quinone Glucose Dehydrogenase Using Antagonistic Template-Based Biopanning” (International Journal of Molecular Sciences, 2013).

Legend:
[1] = Substrate specificity of GDH-B mutants; assay type: biochemical; conditions: galactose 20 mM; activity against glucose = 100%
Procedure: Figure 3. Substrate specificity of wild-type GDH-B (W.T.), DEE-His, and HI against glucose, lactose, maltose, 3-O-methylglucose (3-O-m glucose), allose, galactose, or 2-deoxyglucose (2DG). Each substrate concentration was 20 mM. The enzymatic activity of each enzyme against glucose was set as 100%.
(§1) GDH-B activity was measured using 0.06 mM 2,6-dichlorophenolindophenol (DCIP) and 0.6 mM phenazine methosulfate (PMS) following 30 min pre-incubation in 10 mM MOPS–NaOH buffer (pH 7.0) containing 1 μM PQQ and 1 mM CaCl2 at room temperature (25 °C). The enzyme activity was determined by measuring the decrease in absorbance of DCIP at 600 nm. For the inhibition assay, the residual activity of 0.7 nM GDH-B for 50 mM D-glucose was measured following 1 h incubation with various concentrations of each peptide. GDH-B activity in the absence of peptide was defined as 100%.

[2] = Kinetic parameters of GDH-B and mutant enzymes; assay type: biochemical
Procedure: as §1

[3] = DCIP/PMS assay, 10 mM MOPS–NaOH pH 7.0, 1 μM PQQ, 1 mM CaCl2, 25 °C

B1: DEE-His: GDH-B mutant V453D-Q454E-K455E, 6-His tag fused to the C-terminal, antagonistic template (protein)
chain: DVPLTPSQFAKAKSENFDKKVILSNLNKPHALLWGPDNQIWLTERATGKILRVNPESGSVKTVFQVPEIVNDADGQNGLLGFAFHPDFKNNPYIYISGTFKNPKSTDKELPNQTIIRRYTYNKSTDTLEKPVDLLAGLPSSKDHQSGRLVIGPDQKIYYTIGDQGRNQLAYLFLPNQAQHTPTQQELNGKDYHTYMGKVLRLNLDGSIPKDNPSFNGVVSHIYTLGHRNPQGLAFTPNGKLLQSEQGPNSDDEINLIVKGGNYGWPNVAGYKDDSGYAYANYSAAANKSIKDLAQNGVKVAAGVPVTKESEWTGKNFVPPLKTLYTVQDTYNYNDPTCGEMTYICWPTVAPSSAYVYKGGKKAITGWENTLLVPSLKRGVIFRIKLDPTYSTTYDDAVPMFKSNNRYRDVIASPDGNVLYVLTDTAGNDEEDDGSVTNTLENPGSLIKFTYKAK
modifications: left off: His6, C-terminal, kept
notes: GDH-B mutant V453D-Q454E-K455E, 6-His tag fused to the C-terminal, antagonistic template
relative activity toward galactose (in words) [1]: higher relative activity toward galactose
Km [2, 3]: 91 mM
Vmax [2, 3]: 28 U/mg protein
Km compared to wild-type enzyme (in words) ([2]; compared to the wild-type enzyme): increased Km value
GDH activity with PQQ (in words) ([2]; refolded DEE-His, with PQQ): showed GDH activity with PQQ
